As a reminder, the stoichiometry N is a count of units in the complex or per binding partner.

Our source for the stoichiometry N values is paper PMC10173608.

In the assay the target is GFP-tagged TDP-43-ΔNLS-KQ (GFP-TDP43-ΔNLS-K145Q, pTX066) (human) (UniProt Q13148). As to the kind of experiment: non-reducing SDS-PAGE and immunoblot of immunoprecipitated aggregates.

Several values for one entry are separate records, joined by “and”; a condition that tells them apart may be missing. Equal entries are not always repeated.

For “GFP-tagged TDP-43-ΔNLS-KQ (GFP-TDP43-ΔNLS-K145Q, pTX066) (from UniProt Q13148 1-414) (natural protein)”, the stoichiometry N was 2 and 4.
